Patent US20020137113A1 (Genentech, published 2002)

Biological target: trkB.IgG (untagged trk.IgG fusion of the trkB extracellular domain and IgG-1 Fc) (human, UniProt Q16620 32-430)
Assay: competitive displacement of iodinated NT5 from trkB.IgG in 293 cell supernatant

Sequence of trkB.IgG (untagged trk.IgG fusion of the trkB extracellular domain and IgG-1 Fc) (Q16620 32-822): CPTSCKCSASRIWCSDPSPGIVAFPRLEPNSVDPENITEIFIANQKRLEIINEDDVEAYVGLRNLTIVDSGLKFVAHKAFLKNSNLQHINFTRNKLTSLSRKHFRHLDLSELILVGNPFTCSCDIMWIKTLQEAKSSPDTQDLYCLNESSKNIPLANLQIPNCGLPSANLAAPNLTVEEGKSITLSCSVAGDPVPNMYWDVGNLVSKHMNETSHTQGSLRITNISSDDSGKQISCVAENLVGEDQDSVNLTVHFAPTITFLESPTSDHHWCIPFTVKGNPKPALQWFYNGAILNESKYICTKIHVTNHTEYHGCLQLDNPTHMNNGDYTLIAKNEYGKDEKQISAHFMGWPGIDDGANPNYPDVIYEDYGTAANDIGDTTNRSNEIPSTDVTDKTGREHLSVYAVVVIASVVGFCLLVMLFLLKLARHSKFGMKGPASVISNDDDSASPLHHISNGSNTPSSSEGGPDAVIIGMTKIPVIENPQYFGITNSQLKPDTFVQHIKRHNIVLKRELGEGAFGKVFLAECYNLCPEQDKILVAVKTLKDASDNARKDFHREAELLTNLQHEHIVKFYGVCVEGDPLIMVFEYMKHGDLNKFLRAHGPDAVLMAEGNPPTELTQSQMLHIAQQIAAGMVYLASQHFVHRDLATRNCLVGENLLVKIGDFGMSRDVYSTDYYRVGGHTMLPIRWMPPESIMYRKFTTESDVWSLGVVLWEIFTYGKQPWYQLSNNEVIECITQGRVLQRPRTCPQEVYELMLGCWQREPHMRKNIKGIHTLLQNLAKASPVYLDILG

IC50: 0.0311 nM
B1: neurotrophin 5 (NT5) (ligand, UniProt P34130 81-210, looked up)
chain: GVSETAPASRRGELAVCDAVSGWVTDRRTAVDLRGREVEVLGEVPAAGGSPLRQYFFETRCKADNAEEGGPGAGGGGCRGVDRRHWVSECKAKQSYVRALTADAQGRVGWRWIRIDTACVCTLLSRTGRA
notes: It is printed as NTS in several places, which I read as a misprint of NT5; The tracer in the displacement assay was the iodinated form; also called NTS
